From patent US20230295330A1 (Seagen, published 2023)

Tests used:
[1] = target: T1, human CD228 (R&D Systems Custom02; Lot DCWR021505A) (human, UniProt P08582 20-709, limits assumed); assay: ELISA, coated human CD228, pH 4.55
T1 construct: Bought custom protein coated on ELISA plates; also called CD228 protein; melanotransferrin
T1 sequence (looked up): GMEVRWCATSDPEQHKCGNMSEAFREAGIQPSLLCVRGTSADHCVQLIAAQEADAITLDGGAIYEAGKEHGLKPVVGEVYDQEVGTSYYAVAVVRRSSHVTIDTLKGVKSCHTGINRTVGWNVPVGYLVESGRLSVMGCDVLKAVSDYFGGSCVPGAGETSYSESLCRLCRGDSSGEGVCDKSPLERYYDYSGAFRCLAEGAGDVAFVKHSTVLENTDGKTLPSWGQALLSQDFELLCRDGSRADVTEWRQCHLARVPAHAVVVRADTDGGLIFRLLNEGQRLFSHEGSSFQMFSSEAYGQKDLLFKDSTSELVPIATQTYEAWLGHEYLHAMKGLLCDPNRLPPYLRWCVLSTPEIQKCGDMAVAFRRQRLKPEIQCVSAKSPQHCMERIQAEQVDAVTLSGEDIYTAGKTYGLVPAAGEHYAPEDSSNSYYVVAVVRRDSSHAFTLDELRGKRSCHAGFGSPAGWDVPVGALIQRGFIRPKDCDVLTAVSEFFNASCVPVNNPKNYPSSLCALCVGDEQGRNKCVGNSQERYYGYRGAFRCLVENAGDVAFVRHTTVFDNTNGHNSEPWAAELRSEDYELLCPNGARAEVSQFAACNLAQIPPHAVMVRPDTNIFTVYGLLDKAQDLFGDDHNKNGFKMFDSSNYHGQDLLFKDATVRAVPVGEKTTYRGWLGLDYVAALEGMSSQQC
Description: (§1) Briefly, 100 ng of human CD228 (R&D Systems Custom02; Lot DCWR021505A) or BSA (Sigma; Catalog No. A7030-100G) were diluted in PBS and added to each well overnight at 4° C. Plates were then washed three times with PBS-T (EMD Millipore; Catalog No. 5246531EA). After washing, plates were blocked with 3% (w/v) BSA in PBS-T for 1 hour at room temperature. Excess blocking buffer was then removed and the primary antibody was added in 3-fold dilutions in diluent buffer (0.15M citrate-phosphate buffer pH 4.0-7.5) starting at an antibody concentration of 60 nM. After incubating for 1 hour at room temperature, the plates were washed 3 times and then incubated with secondary antibody (Goat anti-human IgG Fc-specific HRP-conjugated, Jackson ImmunoResearch code #109-035-098) in PBS-T with 1% BSA. After incubating for 30 minutes at room temperature, plates were washed 3 times. 100 μl TMB substrate (Life Technologies-, Cat #002023) was then added to each well. After incubating 10 minutes at room temperature, 100 μl H₂SO₄ was added to each well to stop the reaction, plates were covered with clear plate seal and read on an Envision at […]. pH-dependent binding for hL49 and nine variants with histidine substituted to alanine, glutamine, or tyrosine in the light chain CDRs are shown in FIG. 1A-1I. […] The triple mutants have lower affinity overall compared to hL49.

[2] = target: T1, human CD228 (R&D Systems Custom02; Lot …); assay: ELISA on CD228 protein, neutral pH (rounded form of Table 2, pH 7.40)
[3] = target: T2, CD228 on A375 and A2058 cells (human, UniProt P08582 20-709); assay: flow cytometry saturation binding on A2058 cells (~40K receptors), neutral pH
T2 construct: whole, on cells; GPI-anchored cell surface protein; also called CD228 on A375 cells; CD228 on A2058 cells
T2 sequence (looked up): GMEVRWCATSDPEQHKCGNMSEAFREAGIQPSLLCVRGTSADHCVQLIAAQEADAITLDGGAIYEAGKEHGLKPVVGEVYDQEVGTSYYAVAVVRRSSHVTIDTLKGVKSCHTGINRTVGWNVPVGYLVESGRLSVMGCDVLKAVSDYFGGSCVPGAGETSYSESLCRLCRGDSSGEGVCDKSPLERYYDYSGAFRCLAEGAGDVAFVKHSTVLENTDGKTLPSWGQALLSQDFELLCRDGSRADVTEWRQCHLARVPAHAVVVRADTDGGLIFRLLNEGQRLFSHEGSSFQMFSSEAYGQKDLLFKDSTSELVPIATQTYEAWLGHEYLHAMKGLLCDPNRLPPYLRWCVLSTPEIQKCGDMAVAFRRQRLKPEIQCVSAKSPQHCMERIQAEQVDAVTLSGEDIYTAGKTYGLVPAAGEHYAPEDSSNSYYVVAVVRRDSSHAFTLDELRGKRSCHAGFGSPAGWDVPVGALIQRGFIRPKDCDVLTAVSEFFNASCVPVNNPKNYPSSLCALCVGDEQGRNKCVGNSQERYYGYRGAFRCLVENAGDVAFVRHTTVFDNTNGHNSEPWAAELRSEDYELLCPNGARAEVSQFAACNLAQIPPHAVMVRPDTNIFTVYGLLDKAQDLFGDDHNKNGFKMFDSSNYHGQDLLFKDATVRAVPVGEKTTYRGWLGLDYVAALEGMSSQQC
Description: (§2) The ability of various anti-CD228 antibodies to bind to CD228 on A375 cells, A2058 cells, and CD228 protein was evaluated at neutral pH using a saturation binding assay. Briefly, 1×10⁵ A2058 or A375 cells that have either 40,000 or 18,000 copies of CD228 respectively, were aliquoted per well of a 96-well v-bottom plates. Each CD228 antibody was added in concentrations ranging from 0.66 pM to 690 nM and incubated on ice for 60 minutes. Cells were pelleted and washed 3× with PBS/BSA followed by addition of 10 μg/ml of a PE labeled anti-human IgG goat secondary antibody and incubated on ice for an additional 60 minutes. Cells were pelleted and washed 3× with PBS/BSA and resuspended in 125 μL of PBS/BSA. Fluorescence was analyzed by flow cytometry, using percent of saturated fluorescent signal to determine percent bound and to subsequently calculate apparent KID. […] The histidine 34 variants show large differences for substitutions with alanine, glutamine, and tyrosine.

[4] = target: T1, human CD228 (R&D Systems Custom02; Lot …); assay: ELISA, coated human CD228, pH 6.30
Description: as §1

[5] = target: T1, human CD228 (R&D Systems Custom02; Lot …); assay: ELISA, coated human CD228, pH 5.60
Description: as §1

[6] = target: T1, human CD228 (R&D Systems Custom02; Lot …); assay: ELISA, coated human CD228, pH 7.40
Description: as §1

[7] = target: T2, CD228 on A375 and A2058 cells; assay: flow cytometry saturation binding on A375 cells (~18K receptors), neutral pH
Description: as §2

B1: hL49_27D_Tyr (antibody, V domains shown)
VH: QVQLQESGPGLVKPSETLSLTCTVSGDSITSGYWNWIRQPPGKGLEYIGYISDSGITYYNPSLKSRVTISRDTSKNQYSLKLSSVTAADTAVYYCARRTLATYYAMDYWGQGTLVTVSS
VL: DFVMTQSPLSLPVTLGQPASISCRASQSLVYSDGNTYLHWYQQRPGQSPRLLIYRVSNRFSGVPDRFSGSGSGTDFTLKISRVEAEDVGVYYCSQSTHVPPTFGQGTKLEIK
notes: hL49 variant with the light chain CDR-L1 histidine 27D changed to tyrosine
EC50 [1]: 335 nM | EC50 [2]: 0.7 nM | EC50 [3]: 0.7 nM | EC50 [4]: 0.96 nM | EC50 [5]: 5.16 nM | EC50 [6]: 0.72 nM | EC50 [7]: 1.1 nM
